In patent publication US8865222B2, “Beta-casein assemblies for enrichment of food and beverages and methods of preparation thereof” (Technion Research and Development Foundation Ltd., priority 2008, dated 2014):
Marks after values point to notes of the source that are not given here.

What was measured:
Assay type in all cases: physicochemical
[1] = Turbidity (solution absorbance at 600 nm); details: pH 2.6, empty assemblies, up to at least 2 wt %
[2] = Dynamic light scattering (DLS) particle size; details: pH 2.6, pure beta-casein, FIG. 12
Method: The pure beta-casein micelles remain small, below 80 nm, consistent with the fact the solution remains transparent.
The particle size distribution and the turbidity of a vitamin D loaded beta-casein micellar solutions at pH 7.0 and pH 2.5 as a function of beta-casein concentration are shown in FIGS. 15 and 16 respectively. Vitamin D concentration in this experiment was kept constant (82.5 μg/ml; 0.2 mM) and the beta-casein concentration was raised gradually from 0 to 2% by weight (0 to 0.8 mM). […] This value is relatively low and the solutions looked transparent to the human eye.

[3] = Isothermal titration calorimetry (ITC) demicellization of beta-casein micellar solution
Method: • Cryo-TEM: Specimens were prepared in the controlled environment vitrification system (CEVS) (Bellare et al. Electron Microsc. Technique, 1988, 10; 87-111) at 24° C. and 100% relative humidity to avoid loss of volatiles. First, the solutions were incubated in the CEVS at the desired temperature for 1 h. Then, a 7 μL drop of each solution was placed on a TEM copper grid covered with a perforated carbon film (Pelco International) and blotted with filter paper to form a thin liquid film of the sample (100-200 nm thick). The thinned sample was plunged into liquid ethane at its freezing temperature (−183° C.) to form a vitrified specimen and then transferred to liquid nitrogen ([…]) for storage. The vitrified specimens were examined in a Philips CM120 transmission electron microscope operating at an accelerating voltage of 120 kV. We used an Oxford CT3500 (Oxford Instruments) cryoholder that maintained the specimens below −175° C. during sample transfer and observation. Images were recorded digitally on a cooled Gatan MultiScan 791 CCD camera using DigitalMicrograph 3.1 software (Gatan) in the low-dose imaging mode to minimize beam exposure and electron-beam radiation damage. • ITC: ITC measurements were performed with a VP-ITC calorimeter (MicroCal) at a temperature of 24° C. The reaction cell (V=1.43 mL) was filled with degassed solvent (lactic acid at pH 2.6, or phosphate buffer at pH 7.0). The injector-stirrer syringe (289 μL) was loaded with a beta-casein micellar solution (20 mg/mL). The micellar solution was injected into the reaction cell in 28 steps of 10 μL aliquots each, and the heat flow was measured. During the titration, the stirring speed was 310 rpm. The duration of each injection was 20 s, and the equilibration time between consecutive injections was 3 min. Such an interval was sufficient to equilibrate the reaction cell after every injection. Each experiment was performed at least three times. Calorimetric data analysis was carried out using Origin 5.0 software (MicroCal). • Analytical Ultracentrifugation: Sedimentation equilibrium experiments were performed at 24° C. using a Beckman Optima XL-A (Palo Alto, Calif.) analytical centrifuge at 6000, 10000, and 12000 rpm for the low-pH solutions and at 4000, 6000, and 8000 rpm for the pH 7.0 solutions. Data were collected at 280 nm. The beta-casein solutions were studied at concentrations ranging from 0.2 to 10.0 mg/mL at pH 2.6 and from 0.2 to 2 mg/mL at pH 7.0 and an ionic strength of 0.1. […] The average apparent molecular weight of the micelles at the various protein concentrations was calculated following methods well known in the art (The partial specific volume vj of the solute was taken to be 0.742 cm3/g3, and a solution density F of 1.0044 g/cm3 was measured). At beta-casein concentrations of 2 mg/mL and above under low pH conditions, the plot of the natural logarithm of the measured absorbance versus the square of the radius from the axis of rotation was not linear. To estimate Nagg, the limiting slope toward the outer edge of the sample cell was used to provide dln(c)/dr^2. The molecular weight calculated using this slope was divided by the monomer molecular weight calculated from the beta-casein amino acid sequence (24000).
• Characterization of the beta-casein micelles by ITC: beta-casein micellar solution was titrated into lactic acid buffer (pH 2.6) placed in the ITC cell, and the heat flow was measured as a function of time (FIG. 6A). Three factors contribute to the exothermic enthalpy changes observed at the initial injections: micelle dilution, demicellization, and dilution of individual beta-casein molecules. The enthalpy changes decrease in magnitude as more protein is added and the concentration in the ITC cell increases. Eventually, the concentration in the cell exceeds the CMC and only micelle dilution contributes to the heat flow. […]

[4] = Analytical ultracentrifugation, sedimentation equilibrium
Method: • Cryo-TEM: Specimens were prepared in the controlled environment vitrification system (CEVS) (Bellare et al. Electron Microsc. Technique, 1988, 10; 87-111) at 24° C. and 100% relative humidity to avoid loss of volatiles. First, the solutions were incubated in the CEVS at the desired temperature for 1 h. Then, a 7 μL drop of each solution was placed on a TEM copper grid covered with a perforated carbon film (Pelco International) and blotted with filter paper to form a thin liquid film of the sample (100-200 nm thick). The thinned sample was plunged into liquid ethane at its freezing temperature (−183° C.) to form a vitrified specimen and then transferred to liquid nitrogen ([…]) for storage. The vitrified specimens were examined in a Philips CM120 transmission electron microscope operating at an accelerating voltage of 120 kV. We used an Oxford CT3500 (Oxford Instruments) cryoholder that maintained the specimens below −175° C. during sample transfer and observation. Images were recorded digitally on a cooled Gatan MultiScan 791 CCD camera using DigitalMicrograph 3.1 software (Gatan) in the low-dose imaging mode to minimize beam exposure and electron-beam radiation damage. • ITC: ITC measurements were performed with a VP-ITC calorimeter (MicroCal) at a temperature of 24° C. […] The micellar solution was injected into the reaction cell in 28 steps of 10 μL aliquots each, and the heat flow was measured. […] The average apparent molecular weight of the micelles at the various protein concentrations was calculated following methods well known in the art (The partial specific volume vj of the solute was taken to be 0.742 cm3/g3, and a solution density F of 1.0044 g/cm3 was measured). At beta-casein concentrations of 2 mg/mL and above under low pH conditions, the plot of the natural logarithm of the measured absorbance versus the square of the radius from the axis of rotation was not linear. […] The molecular weight calculated using this slope was divided by the monomer molecular weight calculated from the beta-casein amino acid sequence (24000). […]

B1: beta-casein: lyophilized bovine beta-casein (~24 kDa milk protein) self-assembled into nano-sized micelles at low or neutral pH (protein, UniProt P02666 16-224, looked up)
Beta-casein: RELEELNVPGEIVESLSSSEESITRINKKIEKFQSEEQQQTEDELQDKIHPFAQTQSLVYPFPGPIPNSLPQNIPPLTQTPVVVPPFLQPEVMGVSKVKEAMAPKHKEMPFPKYPVEPFTESQSLTLTDVENLHLPLPLLQSWMHQPHQPLPPTVMFPPQSVLSLSQSKVLPVPQKAVPYPQRDMPIQAFLLYQEPVLGPVRGPFPIIV
turbidity [1]: does not vary significantly
mean size of the assemblies [2]: below 80 nm
heat of demicellization, ΔHdemic ([3]; pH 2.6, 24 °C): ~-17.9 kJ/mol
CMC ([3]; pH 2.6, 24 °C, ITC): 1.89 mg/mL
CMC ([3]; pH 2.6, 25 °C row of table, found by ITC (footnote *)): 0.19* wt %
relative micellization cooperativity (MR) ([3]; pH 2.6, IS 0.002, 24 °C): 0.14 mM
CMC ([3]; pH 2.6, ITC): 0.079 mM
heat of demicellization, ΔHdemic ([3]; pH 7.0 and IS of 0.1): -40.53 kJ/mol
aggregation number ([4]; pH 2.6, around the CMC): 3
aggregation state ([4]; pH 2.6, concentrations lower than the CMC): monomeric
Nagg ([4]; pH 7.0 and ionic strength 0.1): 20
